# Reference: patent US20170174769A1
# “And” between values parts separate entries of the source, which are not always exact repeats. Equal entries are not always repeated.
# Experiments:
# [1] = target: full-length human FGFR1c on HEK293/hFGFR1c/SRE-luc cells (human) (UniProt P11362); experiment: FACS on stable HEK293 cells, secondary antibody alone
# [2] = target: full-length human KLB on HEK293/hKLB/SRE-luc cells (human) (UniProt Q86Z14); experiment: as above
# [3] = target: human KLB and human FGFR1c co-expressed on HEK293/hKLB/hFGFR1c/SRE-luc cells (human) (UniProt Q86Z14); experiment: as above
# [4] = target: full-length human FGFR1c on HEK293/hFGFR1c/SRE-luc cells (human) (UniProt P11362); experiment: FACS on stable HEK293 cells, secondary antibody alone; row shifted one column to the left (c3 = 293/hFGFR1c)
# [5] = target: human KLB and human FGFR1c co-expressed on HEK293/hKLB/hFGFR1c/SRE-luc cells (human) (UniProt Q86Z14); experiment: FACS on stable HEK293 cells, secondary antibody alone; row shifted one column to the left (c4 = 293/hFGFR1c/hKLB)
# [6] = target: mouse KLB and mouse FGFR1c co-expressed on HEK293/mKLB/mFGFR1c/SRE-Luc cells (mouse); experiment: FACS on stable HEK293 cells, secondary antibody alone; row shifted one column to the left (c5 = 293/mFGFR1c/mKLB)
# [7] = target: full-length human FGFR1c on HEK293/hFGFR1c/SRE-luc cells (human) (UniProt P11362); experiment: FACS on stable HEK293 cells
# [8] = target: full-length human KLB on HEK293/hKLB/SRE-luc cells (human) (UniProt Q86Z14); experiment: FACS on stable HEK293 cells
# [9] = target: human KLB and human FGFR1c co-expressed on HEK293/hKLB/hFGFR1c/SRE-luc cells (human) (UniProt Q86Z14); experiment: FACS on stable HEK293 cells
# [10] = target: cell-surface human FGFR1c alone (amino acids 1-731 of NP_075594) on HEK293/hFGFR1c/SRE-Luc cells of Example 19 (human) (UniProt P11362); experiment: cell-based or functional assay
# [11] = target: full-length human FGFR1c on HEK293/hFGFR1c/SRE-luc cells (human) (UniProt P11362); experiment: cell-based or functional assay
# Chain of full-length human FGFR1c on HEK293/hFGFR1c/SRE-luc cells (human) (P11362 other isoform, or with tags, fused parts or gaps limits assumed): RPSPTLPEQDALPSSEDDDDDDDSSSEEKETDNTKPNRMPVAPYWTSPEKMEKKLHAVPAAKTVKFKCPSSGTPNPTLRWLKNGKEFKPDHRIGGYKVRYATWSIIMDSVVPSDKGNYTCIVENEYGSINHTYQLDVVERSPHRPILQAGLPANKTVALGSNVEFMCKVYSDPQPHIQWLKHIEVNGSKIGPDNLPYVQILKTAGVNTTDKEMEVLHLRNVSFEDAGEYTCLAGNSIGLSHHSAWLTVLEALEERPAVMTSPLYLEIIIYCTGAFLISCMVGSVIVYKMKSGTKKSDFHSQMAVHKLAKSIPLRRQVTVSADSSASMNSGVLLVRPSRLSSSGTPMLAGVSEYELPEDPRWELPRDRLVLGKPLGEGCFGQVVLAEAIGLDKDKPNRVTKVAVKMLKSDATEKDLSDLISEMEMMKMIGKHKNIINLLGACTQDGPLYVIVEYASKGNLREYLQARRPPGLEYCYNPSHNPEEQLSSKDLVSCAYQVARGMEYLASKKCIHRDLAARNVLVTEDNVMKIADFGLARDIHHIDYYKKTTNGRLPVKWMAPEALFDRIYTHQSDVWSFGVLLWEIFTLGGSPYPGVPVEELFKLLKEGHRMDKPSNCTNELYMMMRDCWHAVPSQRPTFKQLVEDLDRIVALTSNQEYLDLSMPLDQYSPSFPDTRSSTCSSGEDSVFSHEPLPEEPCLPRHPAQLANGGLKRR
# Chain of human KLB and human FGFR1c co-expressed on HEK293/hKLB/hFGFR1c/SRE-luc cells (human) (Q86Z14 whole entry, chain 1 of 2, the tested form may be a part): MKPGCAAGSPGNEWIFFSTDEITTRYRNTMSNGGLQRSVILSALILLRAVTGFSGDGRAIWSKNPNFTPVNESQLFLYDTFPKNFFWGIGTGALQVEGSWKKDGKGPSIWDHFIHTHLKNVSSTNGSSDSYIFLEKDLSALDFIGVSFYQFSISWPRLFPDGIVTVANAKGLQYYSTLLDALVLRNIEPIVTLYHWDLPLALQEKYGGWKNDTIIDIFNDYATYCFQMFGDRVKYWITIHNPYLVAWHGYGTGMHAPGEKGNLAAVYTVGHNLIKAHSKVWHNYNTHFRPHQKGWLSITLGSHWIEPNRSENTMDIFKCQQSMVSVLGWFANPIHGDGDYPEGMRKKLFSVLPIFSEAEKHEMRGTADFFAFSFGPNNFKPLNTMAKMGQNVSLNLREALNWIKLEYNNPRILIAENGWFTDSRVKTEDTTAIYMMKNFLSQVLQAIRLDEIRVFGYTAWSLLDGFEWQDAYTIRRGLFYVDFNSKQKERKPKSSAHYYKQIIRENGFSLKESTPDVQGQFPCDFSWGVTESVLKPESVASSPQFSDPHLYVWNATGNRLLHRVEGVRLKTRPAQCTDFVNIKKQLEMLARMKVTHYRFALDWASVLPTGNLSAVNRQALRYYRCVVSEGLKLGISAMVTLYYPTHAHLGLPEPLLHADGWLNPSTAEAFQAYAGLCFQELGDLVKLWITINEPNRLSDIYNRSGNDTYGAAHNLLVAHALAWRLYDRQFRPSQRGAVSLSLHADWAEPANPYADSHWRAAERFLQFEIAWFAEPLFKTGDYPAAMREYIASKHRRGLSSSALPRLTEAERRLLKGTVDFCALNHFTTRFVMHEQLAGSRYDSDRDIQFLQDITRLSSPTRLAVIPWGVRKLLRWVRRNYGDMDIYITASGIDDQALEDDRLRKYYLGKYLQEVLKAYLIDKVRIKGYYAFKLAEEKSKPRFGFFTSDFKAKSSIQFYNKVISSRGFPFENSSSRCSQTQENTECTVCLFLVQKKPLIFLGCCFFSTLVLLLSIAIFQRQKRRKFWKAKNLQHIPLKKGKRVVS
# Chain of human KLB and human FGFR1c co-expressed on HEK293/hKLB/hFGFR1c/SRE-luc cells (human) (chain, as listed by the source limits assumed, chain 2 of 2): as the sequence (P11362 other isoform, or with tags, fused parts or gaps limits assumed) above
# Chain of full-length human KLB on HEK293/hKLB/SRE-luc cells (human) (Q86Z14 whole entry): as the sequence (Q86Z14 whole entry, chain 1 of 2, the tested form may be a part) above
# Chain of cell-surface human FGFR1c alone (amino acids 1-731 of NP_075594) on HEK293/hFGFR1c/SRE-Luc cells of Example 19 (human) (P11362 22-822): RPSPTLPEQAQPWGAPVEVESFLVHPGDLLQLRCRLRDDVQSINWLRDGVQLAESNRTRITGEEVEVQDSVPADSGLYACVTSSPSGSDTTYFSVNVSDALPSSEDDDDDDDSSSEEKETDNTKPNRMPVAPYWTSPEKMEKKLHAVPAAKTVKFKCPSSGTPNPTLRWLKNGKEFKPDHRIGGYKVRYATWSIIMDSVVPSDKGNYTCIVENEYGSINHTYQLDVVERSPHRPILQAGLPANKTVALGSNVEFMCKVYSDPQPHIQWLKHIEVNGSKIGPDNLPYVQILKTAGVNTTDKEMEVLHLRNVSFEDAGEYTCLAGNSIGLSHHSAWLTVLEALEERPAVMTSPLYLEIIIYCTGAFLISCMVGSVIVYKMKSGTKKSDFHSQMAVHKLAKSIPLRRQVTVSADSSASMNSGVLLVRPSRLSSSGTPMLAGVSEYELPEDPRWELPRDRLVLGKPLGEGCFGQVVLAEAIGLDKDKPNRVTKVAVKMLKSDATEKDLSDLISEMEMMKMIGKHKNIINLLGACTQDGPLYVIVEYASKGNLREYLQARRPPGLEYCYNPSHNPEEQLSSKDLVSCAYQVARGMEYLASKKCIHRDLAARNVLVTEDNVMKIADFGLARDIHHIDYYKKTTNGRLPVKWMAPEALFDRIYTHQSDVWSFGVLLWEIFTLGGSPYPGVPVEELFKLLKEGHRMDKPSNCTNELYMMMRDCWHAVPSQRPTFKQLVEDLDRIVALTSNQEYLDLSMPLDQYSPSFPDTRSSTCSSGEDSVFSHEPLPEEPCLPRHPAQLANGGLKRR
binding ratio to unstained cells [1],binding ratio to unstained cells [2],binding ratio to unstained cells [3],binding ratio to unstained cells [7],binding ratio to unstained cells [8],binding ratio to unstained cells [9],also measured,Substance
1 fold,2 fold,1 fold,,,,MFI Ratio to unstained cells [4]: 1 fold; MFI Ratio to unstained cells [5]: 1 fold; MFI Ratio to unstained cells [6]: 1 fold,Anti-Human IgG Secondary Antibody
1 fold,1 fold,1 fold,,,,,Anti-Mouse IgG Secondary Antibody
,,,1 fold,1 fold,2 fold,,Irrelevant IgG control 1 (antibody)
,,,2 fold,2 fold,2 fold,,Irrelevant IgG control 2 (antibody)
,,,,,,"EC50, SRE-luc activation [10]: 1.6 nM; EC50, SRE-luc activation by ligand [11]: 0.4 nM and 0.8 nM","human FGF2 (hFGF2; R&D Systems, #233-FB/CF) (from UniProt P09038 143-288) (ligand)"
